Data as given in the DeepSol protein solubility set.

Assay: soluble on expression in E. coli; label from the status in PepcDB or PDB records

Row | Sequence | soluble on expression in E. coli
1 | MSLASTEEETQAVMKVYSKEDYSVVNRFESHGGGWGYSAHSVEAIRFSADTDILLGGLGLFGGRGEYTAKIKLFELGPDGGDHETDGDLLAETDVLAYDCAAREKYAMMFDEPVLLQAGWWYVAWARVSGPSSDCGSHGQASITTDDGVIFQFKSSKKSNNGTDVNAGQIPQLLYRLPTSDGSTSKGKQQTSEPVHILKRSFARTVSVECFESLLSILHWSWTTLVLGVEELRGLKGFQFTATLLDLERLRFVGTCCLRLLRVYTCEIYPVSATGKAVVEETSKLAECIGKTRTLLRKILSEGVDHCMVKLDNDPQGYLSQPLRLLEAVLQECHNTFTACFHSFYPTPALQWACLCDLLNCLDQEANFKTSSSRLLAAVMSALCHTSVKLTSLFPIAYDGEVLLRSIVKQVSTENDSTLVHRFPLLVGHMEKLSQSEENISGMTSFREVLEKMLVIVVLPVRNSLRRESELFSSHLVSNTCGLLASIVSELTASALGSEVDGLNSLHSVKASANRFTKTSQGRSWNTGNGSPDAICFAVDKPGIVVVGFAVYGGGGIHEYELEVLVDDSEHAGDSTHSHRWTSLELVKGTYTTDDSPSDIAEIRLDKVVPLKENVKYAVRLRNYGSRTANGDGGMTTVQCPDGVTFTFSTCSLSSNGTNQTRGQIPQILYYRSEEGHHHHHH | soluble
2 | MSSRGVTAPQGFVAAGATAGIKPSGNKDMALVVNQGPEFVGAAVFTRNRVVASPVKYTKKAVANGTLRAVLYNSGNANACNGVQGDKDVHEIVDYLASKLKVDPLDIAACSTGLIGEPLPVTMIKAGVDKLIPALGDNGGEAADSIMTTDTVAKETVVKCNGWTLGGMGKGVGMMAPSLATMLVCLTTDACVTQAQAHAALSKACDVTFNTLDIDGSTSTNDTVILLANGASGITPTESEFNDAVLQACADIADQLQADAEGVTKRVRITVTGTTTDSQALNAARTLGRDNLFKCAMFGSDPNWGRVLAAVGMADADMDPDNISVYFNDQPVCLQSGGTPEARQVDLSGIDIDVRVDLGTGGPGKAFVRTTDLSHQYVEINSAYSSLEHHHHHH | not soluble
3 | RPRNALLLLADDGGFESGAYNNSAIATPHLDALARRSLLFRNAFTSVSSCSPSRASLLTGLPQHQNGMYGLHQDVHHFNSFDKVRSLPLLLSQAGVRTGIIGKKHVGPETVYPFDFAYTEENGSVLQVGRNITRIKLLVRKFLQTQDDRPFFLYVAFHDPHRCGHSQPQYGTFCEKFGNGESGMGRIPDWTPQAYDPLDVLVPYFVPNTPAARADLAAQYTTVGRMDQGVGLVLQELRDAGVLNDTLVIFTSDNGIPFPSGRTNLYWPGTAEPLLVSSPEHPKRWGQVSEAYVSLLDLTPTILDWFSIPYPSYAIFGSKTIHLTGRSLLPALEAEPLWATVFGSQSHHEVTMSYPMRSVQHRHFRLVHNLNFKMPFPIDQDFYVSPTFQDLLNRTTAGQPTGWYKDLRHYYYRARWELYDRSRDPHETQNLATDPRFAQLLEMLRDQLAKWQWETHDPWVCAPDGVLEEKLSPQCQPLHNEL | soluble
4 | GPGSMMEGSPSEVHVHSSMAMGLQERPPLELVSHASEVSCLTINDNYDMWNASMYPNLNSGFDASLTSATTPDTTVARFAPAMRPHRKQQLSHQMMPLPARGEQTMSDIDSEVVLWDRPPTQDVLGSPAASGL | soluble
5 | MLFQNVSIAGLAHVDAPHTLTSKEINGRLQPTYDRLGIKTDVLGDVAGIHARRLWDQDVQASDAATQAARKALIDAGIGIEKIGLLVNTSVSRDYLEPSTASIVSGNLGVGDHCVTFDVANACLAFINGMDIAARMLERGEIDYALVVDGETANLVYEKTLERMTSPDVTEEEFRNELAALTLGCGAAAMVMARTELVPDAPRYKGGVTRSATEWNKLCRGNLDRMVTDTRLLLIEGIKLAQKTFLAARQVLGWAVDELDQFVIHQVSRPHTAAFVKSFGIDPAKVMTIFGEHGNIGPASVPIVLSKLKELGRLKKGDRIALLGIGSGLNCSMAEVVW | soluble
6 | MPAALLISGPCKICDLPAHGNHFGVLSCRACAAFFRRASRSPRFQDKACEYGDCRIFDAGAYRCKICRLKKCYKVGMDASKFQKDRDLISSSNAYLKRTKVYAPQSLANFLGRPEFIISFEPEKASPFKTVIDVTDLVHKAAEIFQEDLANSPMPYKYSNSLEKLTLEMEDLRLRSSNHKVKIVRNIGKAESLVFFEQMFLATANWYARLPDFTSLDLRVKLEILKSTWMLWIRLNKLAETAQNQRIKEMGANIFMCSENTCLNVQDINVDWSWCTNYGAEQMQAFLMPNIDKHWRQPVEDLVKLNPTDMELNFMLIQLCLNDAGKKFQGRVLEATDKLLQINADNLHNYYTKKLNMPSYSGRLTKLMKINQIVEEDVRERKEKAKIVEVFDLFSIVYSHPEMFEGT | not soluble
7 | MAMGKPMQVSRYWRHFREKYRLIGGKCENGHLLFPKRPICPICGSRNIEEFQFSGKGKVITWTIVRNPPSGFEYYKPYPLALVQLEEGPVVLAQLTDVEPEEIKEGMEVEMVTRKIREFDEDGLILYGYKFRPIIKSELEHHHHHH | not soluble
8 | SNASKEKREKLEAYQHLFYLLQTNPTYLAKLIFQMPQNKSTKFMDSVIFTLYNYASNQREEYLLLRLFKTALQEEIKSKVDQIQEIVTGNPTVIKMVVSFNRGARGQNALRQILAPVVKEIMDDKSLNIKTDPVDIYKSWVNQMESQTGEASKLPYDVTPEQALAHEEVKTRLDSSIRNMRAVTDKFLSAIVSSVDKIPYGMRFIAKVLKDSLHEKFPDAGEDELLKIIGNLLYYRYMNPAIVAPDAFDIIDLSAGGQLTTDQRRNLGSIAKMLQHAASNKMFLGDNAHLSIINEYLSQSYQKFRRFFQTACDVPELQDKFNVDEYSDLVTLTKPVIYISIGEIINTHTLLLDHQDAIAPEHNDPIHELLDDLGEVPTIESLIGESS | soluble
9 | MFDISHMGRLLIEDPEKKLQYFTTNNLDKLSVGKVQYNLLPNEKGGIKDDVTVYMLSEIEFFLCVNAANRQKVINWLSPHLKLRDLSGELVQIALQGPKSEEIISKFYPVSDLKYYRFKVFDKTIISRTGYTGEDGFEIYVSPEEGKELFLELVKLAKPCGLGARDVLRIEAGLPLYGNELSEEITPIEVNLEKFVDFSKEFIGKEAMLKKKVKKKLFGLELTEKGIPRKGYRVFKGDREIGWISSGTYSPTLNKGIALCFVDIEERKEGNEVEIEVRGRRVRGVLRKYPFVRTPAGRYQKLEHHHHHH | not soluble
10 | MAHHHHHHMIDPVKRDLTNLFLEKREMAKEEIDPRKDWLKRILLNNNTNDLRMFLKASELKTKEGDYCMTCKSNVKQLLYLHTKKNYCHLCEEIFCAYCVKSIDFMKDEKEKYIKIRLCRNCFIYINELKYIINPNLSVDRKAIDLQNSFNDISNCYTNLCSNVPQLNGLVLLCENNKEFLDSFKSEIKQLEEKIQHDVDFLNIMKKKNNFLSDNTLILNKMGKNLLLYLKIIRNKIIPSSIEVLNKTKELLYKK | not soluble
11 | MRGVVGVLALQGDFREHKEALKRLGIEAKEVRKKEHLEGLKALIVPGGESTTIGKLAREYGIEDEVRKRVEEGSLALFGTCAGAIWLAKEIVGYPEQPRLGVLEAWVERNAFGRQVESFEEDLEVEGLGSFHGVFIRAPVFRRLGEGVEVLARLGDLPVLVRQGKVLASSFHPELTEDPRLHRYFLELAGV | soluble
12 | MPDFKIVISDPQSVEPKRIKVKVKASDQVKSITGEKDGKAVPQAKVNEKTKQLLNVDTLLTLEITKQEGDKKVKVKGHFKVDVDNSVPDNEVWISKTMAEKFGAEDFEAFAYRTKTLQISVDQNKATNLVGLKIGDVFEANQLIGLPVKLKITGGSDNSGFPMRFDVIGAAKRKILLSGPPGFYPNENGERRRKTIRGNTISQEIVQINTIIVRLEHHHHHH | soluble
13 | MEALVVVHKVASEGGRRPKTTVSDESGSHSREKGKSFQVKDSPENNYATGKVDSLERSHFSSSYNQERRQSEEQRR | soluble
14 | MRLKKLYLKGFKSFGRPSLIGFSDRVTAIVGPNGSGKSNIIDAIKWVFGEQSKKELRASEKFDMIFAGSENLPPAGSAYVELVFEENGEEITVARELKRTGENTYYLNGSPVRLKDIRDRFAGTGLGVDFYSIVGQGQIDRIVNASPEELRLESSKHPTSLVPRGSYQRVNESFNRFISLLFFGGEGRLNIVSEAKSILDAGFEISIRKPGRRDQKLSLLSGGEKALVGLALLFALMEIKPSPFYVLDEVDSPLDDYNAERFKRLLKENSKHTQFIVITHNKIVMEAADLLHGVTMVNGVSAIVPVEVEKILEVGSHHHHHH | soluble
15 | MKMSELEKMLKGEHFDGASAEIEALRSQAGRLKLEINQSLDEAERYALQRELFGHLGHKSCVQPPFHCEFGKTIRIGDHTFINMNVVMLDGAPITIGDHVLIGPSTQFYTASHSLDYRRRQAWETICKPIVIEDDVWIGGNVVINQGVTIGARSVVAANSVVNQDVPPDTLVGGTPARILRSLKDPAESMAE | not soluble
16 | MILDRERTTGSLFERMEASSARNRQGGSIHSLRQSIRQNLRNILNTRSGSCRGAPELGIDEPEGAENFRESMSRAIEQCIERYEPRISHAEVQAVVSSASSPLDMTFHITAWVTFNETHEVLEFDMAPNGSQHYRVD | soluble
17 | MKGLRLPESMREELAKPHGKLYRGKGEKLLLEVEEISEAKPFCTVGDLVTASAIKVGLTPDLAVADGKTLREENVEFEQEAFDEVIETTNPPAHISCELISALLKALKLCEDGKKVLVFVDGEEDLAVVPLVKLLPLGALILYGQPGEGVVALKVDEEKKVLILNLLNKMEIIGECDELKYLLGGD | not soluble
18 | GPHMASAEEKLEKKLELDPNCKEPLQVLPPTVVDQIRLWQLELDRVITYEGSLYSDFETSQEYNLLSKYAQDIGVLLWKDDKKKKFFISKEGNSQVLDFAKRKLKKKQ | soluble
19 | MNVGIKGFGAYAPEKIIDNAYFEQFLDTSDEWISKMTGIKERHWADDDQDTSDLAYEASVKAIADAGIQPEDIDMIIVATATGDMPFPTVANMLQERLGTGKVASMDQLAACSGFMYSMITAKQYVQSGDYHNILVVGADKLSKITDLTDRSTAVLFGDGAGAVIIGEVSEGRGIISYEMGSDGTGGKHLYLDKDTGKLKMNGREVFKFAVRIMGDASTRVVEKANLTSDDIDLFIPHQANIRIMESARERLGISKDKMSVSVNKYGNTSAASIPLSIDQELKNGKLKDDDTIVLVGFGGGLTWGAMTIKWGK | soluble
20 | MNNTDPTSFESILAGVAKLRKEKSGADTTGSQSLEIDASKLQQQEPQTSRRINSNQVINAFNQQKPEEWTDSKATDDYNRKRPFRSTRPGKTVLVNTTQKENPLLNHLKSTNWRYVSSTGINMIYYDYLVRGRSVLFLTLTYHKLYVDYISRRMQPLSRNENNILIFIVDDNNSEDTLNDITKLCMFNGFTLLLAFNFEQAAKYIEYLNL | soluble
21 | MGSDKIHHHHHHMEFNDQRVRYFFEAARLGGVRAAADRMDIAASAVSRQIRQLEMELGATLFERHRRGFQPTEAGRLLLDYHRKQLSEQEAVLTALRELKGIHRGHVSVVTGGGVISDLIDAIHPFSQRYPQITVGIDIRGTNDIVRAVLEDRAHIGVVFYTAPNPLLRVHRSSIQPLYAVAAPDHPLARAERPIRLEELARHKLALPDVSFGVRQILRDAEKAEQCQLEPAIVTNSFRVMVEYALTGQAATVQPRFSVRRELESGQLQAIPIQQRNLQQAEVHLITHHGRRLSPAAARLLETLAASMPAFRDSAVTP | not soluble
22 | MQRTLGEIMKIYFATGNPNKIKEANIILKDLKDVEIEQIKISYPEIQGTLEEVAEFGAKWVYNILKKPVIVEDSGFFVEALNGFPGTYSKFVQETIGNEGILKLLEGKDNRNAYFKTVIGYCDENGVRLFKGIVKGRVSEEIRSKGYGFAYDSIFIPEEEERTFAEMTTEEKSQISHRKKAFEEFKKFLLDRI | soluble
